Reference: publication PMC9352680, “A comprehensive thermodynamic model for RNA binding by the Saccharomyces cerevisiae Pumilio protein PUF4”

T1: PUF4 RNA-binding domain (Saccharomyces cerevisiae, UniProt P25339 537-888)
T1 sequence: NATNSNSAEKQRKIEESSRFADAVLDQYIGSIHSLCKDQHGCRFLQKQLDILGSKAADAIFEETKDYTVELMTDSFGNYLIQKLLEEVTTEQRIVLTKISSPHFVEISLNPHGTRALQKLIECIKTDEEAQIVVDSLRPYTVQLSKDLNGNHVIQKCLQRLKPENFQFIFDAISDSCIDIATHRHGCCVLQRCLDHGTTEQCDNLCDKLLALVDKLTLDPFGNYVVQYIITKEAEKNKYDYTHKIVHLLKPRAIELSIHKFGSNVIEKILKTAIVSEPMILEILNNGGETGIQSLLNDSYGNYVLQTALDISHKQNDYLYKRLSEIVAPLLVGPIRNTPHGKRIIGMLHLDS

B1: Ib_S2_P4E.1_K4.1_C4.1_H4.1_A4.1_[T7A]_F4.1_[A9C]_T4.1 (ssRNA)
RNA: UUUGAUUAAUAUGAUAUCGUUCUUUCUUGUAUAAUCUUCUUUCUCGAUAUCAUAUUAAUCUUU
B2: Ic_S2_P4E.1_K4.1_C4.1_H4.1_A4.1_[T7G]_F4.1_[A9T]_T4.1 (ssRNA)
RNA: UUUGAUUAAUAUGAUAUCGUUCUUUCUUGUAUAGUUUUCUUUCUCGAUAUCAUAUUAAUCUUU
B3: Ib_S2_P4E.1_K4.1_C4.1_H4.1_A4.1_[T7C]_F4.1_[A9T]_T4.1 (ssRNA)
RNA: UUUGAUUAAUAUGAUAUCGUUCUUUCUUGUAUACUUUUCUUUCUCGAUAUCAUAUUAAUCUUU
B4: Ib_S2_P4E.1_K4.1_C4.1_H4.1_[T1G]_[T3C]_A4.1_F4.1_T4.1 (ssRNA)
RNA: UUUGAUUAAUAUGAUAUCGUUCUUUCUGGCAUAUUAUUCUUUCUCGAUAUCAUAUUAAUCUUU
B5: Ib_S2_P4E.1_K4.1_C4.1_H4.1_A4.1_[T5A]_F4.1_[A9G]_T4.1 (ssRNA)
RNA: UUUGAUUAAUAUGAUAUCGUUCUUUCUUGUAAAUUGUUCUUUCUCGAUAUCAUAUUAAUCUUU
B6: Ib_S2_P4E.1_K4.1_C4.1_H4.1_[G2C]_[T3A]_A4.1_F4.1_T4.1 (ssRNA)
RNA: UUUGAUUAAUAUGAUAUCGUUCUUUCUUCAAUAUUAUUCUUUCUCGAUAUCAUAUUAAUCUUU
B7: Ib_S2_P4E.1_K4.1_C4.1_H4.1_[G2T]_[A4T]_A4.1_F4.1_T4.1 (ssRNA)
RNA: UUUGAUUAAUAUGAUAUCGUUCUUUCUUUUUUAUUAUUCUUUCUCGAUAUCAUAUUAAUCUUU
B8: Ic_S2_P4E.1_K4.1_C4.1_H4.1_A4.1_[T7G]_F4.1_[A9G]_T4.1 (ssRNA)
RNA: UUUGAUUAAUAUGAUAUCGUUCUUUCUUGUAUAGUGUUCUUUCUCGAUAUCAUAUUAAUCUUU
B9: Ib_S2_P4E.1_K4.1_C4.1_H4.1_[G2T]_[A4C]_A4.1_F4.1_T4.1 (ssRNA)
RNA: UUUGAUUAAUAUGAUAUCGUUCUUUCUUUUCUAUUAUUCUUUCUCGAUAUCAUAUUAAUCUUU
B10: Ic_S2_P4E.1_K4.1_C4.1_H4.1_A4.1_F4.1_[A9T]_T4.1 (ssRNA)
RNA: UUUGAUUAAUAUGAUAUCGUUCUUUCUUGUAUAUUUUUCUUUCUCGAUAUCAUAUUAAUCUUU
B11: Ib_S2_P4E.1_K4.1_C4.1_H4.1_A4.1_[T5A]_F4.1_[A9C]_T4.1 (ssRNA)
RNA: UUUGAUUAAUAUGAUAUCGUUCUUUCUUGUAAAUUCUUCUUUCUCGAUAUCAUAUUAAUCUUU
B12: Ic_S2_P4E.1_K4.1_C4.1_H4.1_A4.1_[T7A]_F4.1_[A9G]_T4.1 (ssRNA)
RNA: UUUGAUUAAUAUGAUAUCGUUCUUUCUUGUAUAAUGUUCUUUCUCGAUAUCAUAUUAAUCUUU
B13: Ib_S2_P4E.1_K4.1_C4.1_H4.1_[G2A]_[A4T]_A4.1_F4.1_T4.1 (ssRNA)
RNA: UUUGAUUAAUAUGAUAUCGUUCUUUCUUAUUUAUUAUUCUUUCUCGAUAUCAUAUUAAUCUUU
B14: Ib_S2_P4E.1_K4.1_C4.1_H4.1_[G2A]_[A4G]_A4.1_F4.1_T4.1 (ssRNA)
RNA: UUUGAUUAAUAUGAUAUCGUUCUUUCUUAUGUAUUAUUCUUUCUCGAUAUCAUAUUAAUCUUU
B15: Ib_S2_P4E.1_K4.1_C4.1_H4.1_A4.1_[A6T]_F4.1_[A9C]_T4.1 (ssRNA)
RNA: UUUGAUUAAUAUGAUAUCGUUCUUUCUUGUAUUUUCUUCUUUCUCGAUAUCAUAUUAAUCUUU
B16: Ib_S2_P4E.1_K4.1_C4.1_H4.1_[T1C]_[A4G]_A4.1_F4.1_T4.1 (ssRNA)
RNA: UUUGAUUAAUAUGAUAUCGUUCUUUCUCGUGUAUUAUUCUUUCUCGAUAUCAUAUUAAUCUUU
B17: Ib_S2_P4E.1_K4.1_C4.1_H4.1_[T1A]_[G2A]_A4.1_F4.1_T4.1 (ssRNA)
RNA: UUUGAUUAAUAUGAUAUCGUUCUUUCUAAUAUAUUAUUCUUUCUCGAUAUCAUAUUAAUCUUU
B18: Ib_S2_P4E.1_K4.1_C4.1_H4.1_[G2A]_[T3A]_A4.1_F4.1_T4.1 (ssRNA)
RNA: UUUGAUUAAUAUGAUAUCGUUCUUUCUUAAAUAUUAUUCUUUCUCGAUAUCAUAUUAAUCUUU
B19: Ib_S2_P4E.1_K4.1_C4.1_H4.1_A4.1_[A6G]_F4.1_[A9G]_T4.1 (ssRNA)
RNA: UUUGAUUAAUAUGAUAUCGUUCUUUCUUGUAUGUUGUUCUUUCUCGAUAUCAUAUUAAUCUUU
B20: Ib_S2_P4E.1_K4.1_C4.1_H4.1_[T3C]_[A4C]_A4.1_F4.1_T4.1 (ssRNA)
RNA: UUUGAUUAAUAUGAUAUCGUUCUUUCUUGCCUAUUAUUCUUUCUCGAUAUCAUAUUAAUCUUU
B21: Ic_S2_P4E.1_K4.1_C4.1_H4.1_A4.1_[A6C]_F4.1_[A9C]_T4.1 (ssRNA)
RNA: UUUGAUUAAUAUGAUAUCGUUCUUUCUUGUAUCUUCUUCUUUCUCGAUAUCAUAUUAAUCUUU
B22: Ib_S2_P4E.1_K4.1_C4.1_H4.1_[T1G]_[A4G]_A4.1_F4.1_T4.1 (ssRNA)
RNA: UUUGAUUAAUAUGAUAUCGUUCUUUCUGGUGUAUUAUUCUUUCUCGAUAUCAUAUUAAUCUUU
B23: Ic_S2_P4E.1_K4.1_C4.1_H4.1_A4.1_[T7A]_F4.1_[A9T]_T4.1 (ssRNA)
RNA: UUUGAUUAAUAUGAUAUCGUUCUUUCUUGUAUAAUUUUCUUUCUCGAUAUCAUAUUAAUCUUU

These binders were tested against T1, PUF4 RNA-binding domain (assay: Mg; RNA-MaP; 20 mM Na-HEPES pH 7.4, 30 mM KOAc, 0.75 mM MgCl2, 0.1% Tween-20, 5% glycerol, 0.1 mg/mL BSA, 2 mM DTT; 25 C; 0.0125-409.6 nM protein). Settings: tags: N-His6-TEV cleaved; C-SNAP kept, Cy3B-labelled; label: tethered on chip by stalled RNA polymerase.

B1 and B2 are within 1.5-fold of each other in Kd: 12.3 nM for the first, 11.6 nM for the second.

Compared with B3, B4 is 81-fold higher in Kd: 2.73 nM for the first, 222 nM for the second. The first binds more tightly here.

Compared with B5, B6 is higher in Kd: 9.22 nM for the first, > 2300 nM for the second. The first binds more tightly here.

Compared with B7, B8 is lower in Kd: > 2300 nM for the first, 6.7 nM for the second. The second binds more tightly here.

First: B9
Second: B10
The Kd of the first is higher: > 2300 nM for the first, 1.55 nM for the second. The second binds more tightly here.

First: B11
Second: B12
The Kd of the first is 2.9-fold higher: 17.1 nM for the first, 5.97 nM for the second. The second binds more tightly here.

Compared with B13, B14 is 64-fold lower in Kd: 852 nM for the first, 13.3 nM for the second.

First: B15
Second: B16
The Kd of the first is 2.8-fold higher: 20.5 nM for the first, 7.32 nM for the second. The second binds more tightly here.

Compared with B17, B18 is higher in Kd: 616 nM for the first, > 2300 nM for the second.

First: B19
Second: B20
The Kd of the first is 43-fold lower: 26.5 nM for the first, 1130 nM for the second.

B21 and B22 are within 1.5-fold of each other in Kd: 14.5 nM for the first, 18.6 nM for the second.

In the case of B23, the Kd is reported as 4.33 nM.
